One experiment has as its target T1, hSPSB1 (Homo sapiens, UniProt Q96BD6).
T1 construct: hexahistidine (N, cleaved yes); made in house; host or cells: E. coli BL21(DE3)-R3-pRARE2
T1 sequence (Q96BD6 24-233): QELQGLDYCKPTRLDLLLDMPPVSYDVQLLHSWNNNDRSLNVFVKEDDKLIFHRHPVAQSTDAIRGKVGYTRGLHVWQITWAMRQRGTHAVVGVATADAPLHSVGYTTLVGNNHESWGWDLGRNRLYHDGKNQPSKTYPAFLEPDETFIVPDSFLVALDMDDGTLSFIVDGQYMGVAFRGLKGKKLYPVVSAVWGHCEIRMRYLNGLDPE
In words: ITC of peptides with hSPSB1. The note with it: 20 °C, 50 mM Hepes pH 7.4, 150 mM NaCl, 1 mM DTT, 100 μM peptide into 10 μM protein, ± error of curve fit, single binding site model. How it is done:
Human SPSB constructs lacking the SOCS box region [hSPSB1(24–233), SWISS-PROT accession number Q96BD6; hSPSB2(26–219), Q99619 and hSPSB4(28–233), Q96A44] were cloned into pNIC28-Bsa4 by ligation-independent cloning. Constructs were transformed into BL21(DE3)-R3-pRARE2 and expressed overnight at 18 °C with 0.5 mM IPTG added at OD600 = 0.5–0.8. hSPSB proteins were purified using Ni-Sepharose (GE Healthcare, UK), eluted by imidazole and subsequently cleaved from the N-terminal hexahistidine tag by addition of tobacco etch virus protease (although hSPSB2 was resistant to cleavage). Further purification was achieved by size-exclusion chromatography and finally anion-exchange chromatography in the case of hSPSB1.
ITC measurements on mSPSB proteins were performed at 22 °C using a MicroCalorimetry System (MicroCal, Northhampton, MA). mSPSB1, mSPSB2, and mSPSB4 were prepared by dialyzing against 20 mM Tris, 150 mM sodium chloride, and 2.5 mM calcium chloride at pH 8.0. […] Dilution enthalpies were determined separately by titrating peptide into buffer and used to correct the enthalpies of the binding of protein and peptide. Data were analyzed using a single binding site model implemented in the Origin software package provided with the instrument.

Another experiment deals with hSPSB1-elonginBC. Set-up: method as in PMID 17189197. The note with it: previous study; cited from earlier work.
The next experiment concerns the target mSPSB1ΔSB (murine). As to the kind of experiment: ITC; 100 μM peptide titrated into 10 μM mSPSB protein; 22 °C; 20 mM Tris, 150 mM sodium chloride, 2.5 mM calcium chloride, pH 8.0; single binding site model. Background: In ITC the heat of successive injections is recorded.
The next experiment has as its target mSPSB4ΔSB (murine). The experiment is described as above.
Experiment [1] concerns the target T2, mSPSB2(12–224) (murine, UniProt O88838 12-224).
T2 construct: murine SPSB2 (SSB-2), residues 12-224: lacks the first 11 residues and the C-terminal SOCS box; Uniformly 15N-labelled in one NMR experiment; also called mSPSB2ΔSB; 15N-mSPSB2(12–224); source: E. coli Origami B(DE3) pLysS, GST fusion, purified (glutathione-Sepharose, thrombin cleavage, gel filtration)
T2 sequence (looked up): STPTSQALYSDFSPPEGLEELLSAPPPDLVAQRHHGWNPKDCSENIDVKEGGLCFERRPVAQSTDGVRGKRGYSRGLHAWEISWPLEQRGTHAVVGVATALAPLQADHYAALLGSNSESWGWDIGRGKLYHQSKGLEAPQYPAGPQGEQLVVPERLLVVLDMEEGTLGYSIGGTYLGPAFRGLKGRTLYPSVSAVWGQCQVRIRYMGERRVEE
Described as above. The note with it: both partners purified.

The target of experiment [2] is T2, mSPSB2(12–224). The description is as above. The note with it: both partners purified. The source holds these as a separate data set.

The text below walks through data of article PMC2923778 (Journal of Molecular Biology, 2010).

As usually defined, the Kd is the free concentration of one partner at which half of the binding sites on the other are occupied at equilibrium, for simple one-to-one binding.

Consider `CC[C@H](C)[C@H](NC(=O)[C@H](Cc1ccc(O)cc1)NC(=O)[C@H](Cc1ccccc1)NC(=O)[C@H](CCC(=O)O)NC(=O)[C@H](CCCNC(=N)N)NC(=O)[C@H](CCCCN)NC(=O)[C@H](CCCNC(=N)N)NC(=O)[C@H](CCC(=O)O)NC(=O)[C@@H](NC(=O)[C@H](CC(=O)O)NC(=O)[C@H](CCC(=O)O)NC(=O)[C@@H](NC(=O)[C@@H](NC(=O)[C@H](CC(N)=O)NC(=O)[C@H](CC(N)=O)NC(=O)[C@H](CC(N)=O)NC(=O)[C@H](CC(N)=O)NC(=O)[C@H](CC(N)=O)NC(=O)[C@@H](NC(=O)[C@@H](N)CC(=O)O)[C@@H](C)CC)[C@@H](C)CC)C(C)C)C(C)C)C(=O)O` [VASA], for which the Kd at hSPSB1 turned out to be 40 ± 5 nM.

As for “[N72A]hPar-4(67–81): N72A mutant peptide of hPar-4(67–81) from a previous study (ref 10) (NELNNALPGGAPAAP; UniProt Q96IZ0 67-81, looked up, variant N72A)”, the “binding to hSPSB1-elonginBC (in words)” value in the experiment with hSPSB1-elonginBC was “poor binding”.

B1: hPar-4(64–77) (peptide)
peptide: AAANELNNNLPGGA
notes: human prostate apoptosis response protein-4 (hPar-4), residues 64-77; also called shorter wild-type hPar-4 peptide; source: synthetic peptide (GenScript Corporation)
Consider B1, for which the Kd in the experiment with mSPSB1ΔSB (murine) turned out to be 210 nM; with mSPSB4ΔSB (murine), 213 nM; in the experiment with mSPSB2(12–224) [1], 3100 nM; in the experiment with mSPSB2(12–224) [2] it was 3200 nM.
